In PMC6406002, “Comparison of the functional properties of trimeric and monomeric CaiT of Escherichia coli” (Scientific Reports, 2019):

Columns and labels:
[1] = tested on: T1, C[N+](C)(C)C[C@H](O)CC(=O)O; experiment: purified protein; assay type: biochemical, Escherichia coli; settings: labelled compound, proteoliposomes preloaded with 10 mM L-carnitine, potassium phosphate pH 7.5, 25 °C
T1 construct: full-length with C-terminal 6His tag (pET21a), expressed in E. coli JW0039 (delta caiT), Ni-NTA purified; homotrimer (D288A and D288R mostly monomeric); DDM-solubilized or in proteoliposomes

CaiT-M295E (E. coli) = CaiT-M295E (E. coli) (UniProt P31553); experiment: native gel or EMSA; blue native PAGE, 4–16.5% gradient gel, 5 µg purified protein per lane, in detergent solution
CaiT-R299A (E. coli) = CaiT-R299A (E. coli) (UniProt P31553); experiment: as above

CaiT (Escherichia coli K-12)
Km [1]: 45.3 ± 6.9 µM | Vmax [1]: 2.13 µmol/min/mg

CaiT (Escherichia coli K-12; D288A)
Km ([1]; mostly monomeric variant): 114.1 ± 17.9 µM | Vmax ([1]; mostly monomeric variant): 1.86 µmol/min/mg

CaiT-M295E (from UniProt P31553 1-504) (natural protein)
percent of the protein in the monomeric state (CaiT-M295E (E. coli)): > 80%

CaiT-R299A (from UniProt P31553 1-504) (natural protein)
percent of the protein in the monomeric state (CaiT-R299A (E. coli)): > 80%
